97 variants from the supplement of paper PMC10567573 can be followed below.

The labels stand for the following.
B1: KCNAB2 (parent)
chain: SSIIHEIDSILGNKPYSKKDYRS
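Note: lentivirally expressed fusions sorted by FACS into six bins by GFP to DsRed ratio, PSI derived from sequencing read proportions per bin multiplied by bin number.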

In this series the parent is B1. The series can be described thus: protein stability index of a GFP-peptide fusion (GPS, HEK-293T) (PSI 1-6); higher = more stable. The conditions noted are these: c terminus: native.
As for SSIIHEIDSILDNKPYSKKDYRS [G12D], the protein stability index was determined as 3.81.
SSIIHEIDSILVNKPYSKKDYRS [G12V]: the protein stability index was found to be 2.76.
With SSIIHEIDSILGNKPLSKKDYRS [Y16L], the protein stability index came out at 3.22.
On to SSIIHEIDSILGNKPSSKKDYRS [Y16S], for which the protein stability index is 3.02.
Then SSIIHEIDSILGNKPRSKKDYRS [Y16R], with 2.22.
For SSIIHEIDSILGNKPTSKKDYRS [Y16T] the value was 3.78.
Consider SSIIHEIDSILGNKPCSKKDYRS [Y16C], for which the protein stability index was 3.55.
On to SSIIHEIDSILGNKPVSKKDYRS [Y16V], for which the protein stability index stood at 3.26.
As to SSIIHEIDSILGNKPASKKDYRS [Y16A], the protein stability index stood at 2.85.
On to SSIIHEIDSILGNKPMSKKDYRS [Y16M], for which the protein stability index stood at 2.71.
With SSIIHEIDSILGNKPGSKKDYRS [Y16G], the protein stability index came to 3.59.
For SSIIHEIDSILGNKPPSKKDYRS [Y16P] the value was 3.6.
Then SSIIHEIDSILGNKPNSKKDYRS [Y16N], with 3.34.
Then SSIIHEIDSILGNKPKSKKDYRS [Y16K], with 2.48; and SSIIHEIDSILGNKPDSKKDYRS [Y16D], with 3.65.
Take SSIIHEIDSILGNKPHSKKDYRS [Y16H]: the protein stability index came out at 3.27.
For SSIIHEIDSILGNKPFSKKDYRS [Y16F] the value was 3.41; for SSIIHEIDSILGNKPWSKKDYRS [Y16W], 2.19.
Turning to SSIIHEIDSILGNKPESKKDYRS [Y16E], the protein stability index is 4.12.
Then SSIIHEIDSILGNKPISKKDYRS [Y16I], with 3.8; and SSIIHEIDSILGNKPQSKKDYRS [Y16Q], with 3.14.
Then SSIIHEIDSILGNKPYSGKDYRS [K18G], with 2.61; and SSIIHEIDSILGNKPYSAKDYRS [K18A], with 2.33.
As to SSIIHEIDSILGNKPYSSKDYRS [K18S], the protein stability index came to 2.69.
For SSIIHEIDSILGNKPYSQKDYRS [K18Q], the protein stability index turned out to be 2.76.
For SSIIHEIDSILGNKPYSFKDYRS [K18F] the value was 2.32; for SSIIHEIDSILGNKPYSEKDYRS [K18E], 3.16; for SSIIHEIDSILGNKPYSVKDYRS [K18V], 2.59.
Then SSIIHEIDSILGNKPYSTKDYRS [K18T], with 2.56; and SSIIHEIDSILGNKPYSLKDYRS [K18L], with 2.12; and SSIIHEIDSILGNKPYSRKDYRS [K18R], with 2.94.
Then SSIIHEIDSILGNKPYSWKDYRS [K18W], with 3.39; and SSIIHEIDSILGNKPYSMKDYRS [K18M], with 1.27; and SSIIHEIDSILGNKPYSPKDYRS [K18P], with 2.03.
Take SSIIHEIDSILGNKPYSYKDYRS [K18Y]: the protein stability index was found to be 2.24.
Then SSIIHEIDSILGNKPYSCKDYRS [K18C], with 2.08.
Consider SSIIHEIDSILGNKPYSIKDYRS [K18I], for which the protein stability index was found to be 2.11.
For SSIIHEIDSILGNKPYSDKDYRS [K18D] the value was 2.7; for SSIIHEIDSILGNKPYSHKDYRS [K18H], 2.48; for SSIIHEIDSILGNKPYSNKDYRS [K18N], 3.1.
Then SSIIHEIDSILGNLPYSKKDYRS [K14L], with 2.77; and SSIIHEIDSILGNEPYSKKDYRS [K14E], with 3.24; and SSIIHEIDSILGNCPYSKKDYRS [K14C], with 2.55.
For SSIIHEIDSILGNIPYSKKDYRS [K14I] the value was 2.63; for SSIIHEIDSILGNSPYSKKDYRS [K14S], 3.49.
On to SSIIHEIDSILGNMPYSKKDYRS [K14M], for which the protein stability index was determined as 2.9.
For SSIIHEIDSILGNPPYSKKDYRS [K14P] the value was 3.
For SSIIHEIDSILGNNPYSKKDYRS [K14N] the value was 3.22; for SSIIHEIDSILGNQPYSKKDYRS [K14Q], 3.1.
For SSIIHEIDSILGNYPYSKKDYRS [K14Y] the value was 2.32.
SSIIHEIDSILGNTPYSKKDYRS [K14T]: the protein stability index was determined as 2.89.
For SSIIHEIDSILGNFPYSKKDYRS [K14F] the value was 1.99; for SSIIHEIDSILGNAPYSKKDYRS [K14A], 2.62.
For SSIIHEIDSILGNGPYSKKDYRS [K14G] the value was 2.69; for SSIIHEIDSILGNVPYSKKDYRS [K14V], 2.94; for SSIIHEIDSILGNDPYSKKDYRS [K14D], 3.31.
Consider SSIIHEIDSILGNWPYSKKDYRS [K14W], for which the protein stability index came to 1.7.
For SSIIHEIDSILGNHPYSKKDYRS [K14H] the value was 2.32; for SSIIHEIDSILGNRPYSKKDYRS [K14R], 3.09.
Consider SSIIHEIDSILGNKTYSKKDYRS [P15T], for which the protein stability index stood at 3.33.
For the variant SSIIHEIDSILGNKAYSKKDYRS [P15A], the protein stability index was found to be 3.54.
Then SSIIHEIDSILGNKWYSKKDYRS [P15W], with 2.44.
For SSIIHEIDSILGNKFYSKKDYRS [P15F], the protein stability index turned out to be 2.32.
As for SSIIHEIDSILGNKLYSKKDYRS [P15L], the protein stability index came out at 2.84.
SSIIHEIDSILGNKIYSKKDYRS [P15I]: the protein stability index turned out to be 3.18.
In the case of SSIIHEIDSILGNKMYSKKDYRS [P15M], the protein stability index came to 3.28.
With SSIIHEIDSILGNKRYSKKDYRS [P15R], the protein stability index came out at 2.98.
For the variant SSIIHEIDSILGNKQYSKKDYRS [P15Q], the protein stability index worked out at 2.8.
For SSIIHEIDSILGNKKYSKKDYRS [P15K] the value was 3.36; for SSIIHEIDSILGNKGYSKKDYRS [P15G], 3.36.
SSIIHEIDSILGNKNYSKKDYRS [P15N]: the protein stability index was 3.39.
Then SSIIHEIDSILGNKHYSKKDYRS [P15H], with 2.63; and SSIIHEIDSILGNKSYSKKDYRS [P15S], with 3.42; and SSIIHEIDSILGNKCYSKKDYRS [P15C], with 3.14.
In the case of SSIIHEIDSILGNKVYSKKDYRS [P15V], the protein stability index turned out to be 2.71.
Then SSIIHEIDSILGNKDYSKKDYRS [P15D], with 3.27; and SSIIHEIDSILGNKEYSKKDYRS [P15E], with 3.18.
Then SSIIHEIDSILGNKYYSKKDYRS [P15Y], with 2.63.
For SSIIHEIDSILGNKPYSKQDYRS [K19Q] the value was 3.87; for SSIIHEIDSILGNKPYSKFDYRS [K19F], 2.66.
SSIIHEIDSILGNKPYSKWDYRS [K19W]: the protein stability index stood at 2.8.
For SSIIHEIDSILGNKPYSKVDYRS [K19V] the value was 3.82.
For SSIIHEIDSILGNKPYSKLDYRS [K19L] the value was 3.58.
For SSIIHEIDSILGNKPYSKTDYRS [K19T] the value was 4.16; for SSIIHEIDSILGNKPYSKHDYRS [K19H], 3.9; for SSIIHEIDSILGNKPYSKRDYRS [K19R], 2.89.
As to SSIIHEIDSILGNKPYSKCDYRS [K19C], the protein stability index was 3.2.
For SSIIHEIDSILGNKPYSKMDYRS [K19M] the value was 3.75; for SSIIHEIDSILGNKPYSKIDYRS [K19I], 3.3; for SSIIHEIDSILGNKPYSKPDYRS [K19P], 4.09.
Take SSIIHEIDSILGNKPYSKNDYRS [K19N]: the protein stability index came to 4.06.
Then SSIIHEIDSILGNKPYSKDDYRS [K19D], with 4.08; and SSIIHEIDSILGNKPYSKSDYRS [K19S], with 3.92; and SSIIHEIDSILGNKPYSKADYRS [K19A], with 3.55.
Then SSIIHEIDSILGNKPYSKEDYRS [K19E], with 4.45; and SSIIHEIDSILGNKPYSKGDYRS [K19G], with 3.84.
Turning to SSIIHEIDSILGNKPYSKYDYRS [K19Y], the protein stability index was found to be 2.45.
